# Experimental data as given in the nanobody polyreactivity screen of Harvey et al. (2022).
# Test: yeast display, Sf9 membrane polyspecificity reagent, FACS + sequencing; frameworks hold sequencing errors
# Procedure, shortened: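 Nanobodies came from a synthetic yeast display library in Saccharomyces cerevisiae BJ5465, induced with galactose for 36–48 hours and stained for 1 hour at 4 °C with 10% biotinylated, detergent-solubilized Sf9 membrane reagent. Cells were enriched on streptavidin microbeads and then FACS-sorted, with low and high (top ~1%) gates set on anti-HA fluorescence for expression and streptavidin fluorescence for reagent binding. Each polyreactivity label reflects the gate a clone came from. Genes were amplified by colony PCR, sequenced by MiSeq 2 × 250 and filtered by CDR length.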
row,Sequence,polyreactivity (PSR sort gate)
1,QVQLVESGGGLVQAGGSLRLSCAASGRILRQYAMGWYRQAPGKERELVARISYSGGSTYYADSVKGRFTISRDNAKNTVYLQMNSLKPEDTAVYYCAARRPYKYDYWGQGTQVTVSS,high polyreactivity
2,QVQLVESGGGLVQAGGSLRLSGAASGRIFVRNAMGWYRQAPGKERELVADITNGGSTNYADSVKGRFTISRDNAKNTVYLQMNSLKPEDTAVYYCAADTLGVYDGDYWGQGTQVTVSS,low polyreactivity
3,QVQLVESGGGLVQAGGSLRLSCAASGSTFIGYAMGWYRQAPGKERELVAAISRRGSRTYYADSVKGRFTISRDNAKNTVYLQINSLKPEDTAVYYCNRDYREYGYAYSGRYYWGQGTQVTVSS,high polyreactivity
4,QVQLVESGGGLVQAGGSLRLSCAASGSIFKVNVMGWSRQAPGKERELVAAISRSGGNTYYADSVKGRFTISRDNAKNTVYLQMIILKPEDTGVYYCANDRRYYKAYDYWGQGTRVTVSS,low polyreactivity
5,QDQLVESGGGLVQAGGSLRLTCAASGSTFTLYVMGWYRQAPGKARELVAAISRGDTTNYADSVKGRFTISRDNAKNTVYLQMNSLKPEDTAVYYCAATYPTFFYWSKVYERDYWGQGTQVTVSS,low polyreactivity
6,QVQLVESGGCLVQAGGSLRLSCAASGNTFVDYAMGWYRQAPGKERELGAAIDQTGGSTYYADSVKGRFTISRDNAKNTVYLQMNSLKPVDTAVYYCASDLSDRKDLYPRWYDYWGQGSQVTVSS,low polyreactivity
7,QVQLVESGGGLDQAGGSLRLSSAASGFTFVYYAMGWYRQAPGKERELVAAISWSGGTTYYADSVKGRFTISRDNAKNTVYLQMNSLKPEDTAVYYCNVYPAYIYFDYDYWGQGTQVTVSS,high polyreactivity
8,QVQLVESGGGLVQAGGSLRLSCAASGRTFYPNVMGWYRQAPGKERELVAAISISGGSTRYADSVKGRFTISRDNAKNTVYLQMNSLKPEDTAVYYCAAGYIYWYYSYDYWGQGTQVTVSS,high polyreactivity
9,QVQLVESGGGLVQPGGSLRLSCAASGFIYSYYAMGLYRPAPGKERELVAVITRSVGSTYYADSVKGRFTISRDNAKNTVYLQMNSLKPEYTAVYYCAAGYFYHFSRYTNRYGYWGQGTQVTVSS,high polyreactivity
10,QVHHVESGGGLVQAGGSLRLSCAASGSTIDEYAMGWYRQAPGKERELVAAIDWSTGSTYYADSVKGRFTISRDNAKNTVYLQMNSLKPEDTAVYYCAADSGYGPYYYWGQGTQVTVSS,high polyreactivity
11,QVQLVESGGGLVQAGGSLRLSCAASGFTFLKNAMGWYRQAPGKERELVAAITSSGGRTYYADSVKGRFTISRDNAKNTVYLQMNSLKPEDTAVYYCAADHTHGYVLYYNDNYWGQGTQVTVSS,high polyreactivity
12,QVQLVESGGGIVQAGGSLRLSCAASGRIFAYNAMGWYRQAPGKDRELVAAISSGGNTYYADSVKGRFTISRDNAKNTVYLQMYRLKPEDTAVYYCNAGVGWHRYYSNYDYWGQGTQVTVSS,low polyreactivity
13,QVQLVESGRGLDQAGGSLRLSCAASGSTFESYVMGWYRQAPGKERELVADITKSGGNTYYADSVKGRFTISRDNWMITVYLLMNSLKPEDTAVYYCAVERGRRGMDYWGQGTQVTVSS,low polyreactivity
14,QVQLVESGGGLVQAGGSLRLSCAASGRTFWSNAMGWYRQAPGKERELVATISSGGGNTYYADSVKGRFTISRDNAKNTVYLQMNSLKPEDTAVYYCAATKYRWTYAASFGYWGQGTQVTVSS,high polyreactivity
15,QVQLVESGGGLVQAGGSLRLSSAASGFTFTIYAMGWYRPAPGKERELVDTISTRGGNTYYADSVKGRFTISRDNAKNTVYLQMNSLKPEDTAVYYCAAEHWFPSAPWYYSDLHYYWGQGTQVTVSS,high polyreactivity
16,QVQLVESGGGLVQAGGSLRLSCAASGFTFRRNAMGWYRQAPGKEREFVAAITRSGGSTYYADSVKGRFTISRDNAKNTVYLQMNSLKPEDTAVYYCAADLPRWGSYGYGKMDHWGQGTQVTVSS,high polyreactivity
17,QVQLVESGGGLVQAGGSLRLSCAASGSIFVINPMGWYRQAPGNERELVAAISDSGTGTYYADSVKGRFTISRDNAKNTVYLQMNSLKPEDTAVYYCAADYYYRYRIYDYWGQGTQVTASS,low polyreactivity
18,QVQLVESGGGIVQAGCSLRLICAASGRIFYSNYMGWYRQAPGKERELVAAISSSGGSTYYADSLKGRFTISRDNANNTVYLQMNSLKPEDTAVYYCNAVHARYRSQGDYWGQGTQVTVSS,low polyreactivity
19,QVQLVESGGGLVQAGGSLRLSCAASGRIFYLYTMGWYRQAPGKERELVAAITWSGGRTFYADSVKGRFTISRDNAKNTVYLQMNSLKPEDTAVYYCAARAYDSVGKYYYWGQGTQVTVSS,high polyreactivity
20,QVQLVESGGGLVQAGGSLRLSCAASGRTFKYYAMGWYRQAPGKERELVATISYNGASTYYADSVKGRFTISRDNAKNTVYLQMNSLKPEDTAVYYCAAGYLWRGRLGYWGQGTQVTVSS,high polyreactivity
